# Results from the supplement of paper PMC9112550, “Optimization of the antimicrobial peptide Bac7 by deep mutational scanning” (BMC Biology, 2022).
# Tested on: Escherichia coli TOP10
# Test: shrunken log2 fold change of peptide-encoding DNA abundance (4.5 h post-induction vs induction); higher = less antimicrobial activity (less host growth inhibition)
# Conditions: time post-induction: 4.5 h; library: site-saturation at positions 5, 18, 19, 20
# 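Further: peptides expressed intracellularly from a pBAD plasmid library in pooled LB shake-flask culture, induced with 0.3% L-arabinose, DNA abundance read by NGS, three biological replicates, DESeq2 with apeglm shrinkage.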
row,Sequence,shrunken log2 fold change
1,RRIRARPPRLPRPRPRPEMWPRP,1.21
2,RRIRLRPPRLPRPRPRPMVMPRP,-0.0937
3,RRIRRRPPRLPRPRPRPTDDPRP,0.741
4,RRIRYRPPRLPRPRPRPFAPPRP,-0.386
5,RRIRCRPPRLPRPRPRPYDYPRP,-0.27
6,RRIRTRPPRLPRPRPRPAPYPRP,0.151
7,RRIRFRPPRLPRPRPRPTQPPRP,0.202
8,RRIRGRPPRLPRPRPRPNQFPRP,0.0521
9,RRIRYRPPRLPRPRPRPKNQPRP,-0.777
10,RRIRRRPPRLPRPRPRPESRPRP,0.0681
11,RRIRRRPPRLPRPRPRPTMPPRP,0.438
12,RRIRTRPPRLPRPRPRPQEWPRP,-0.0128
13,RRIRTRPPRLPRPRPRPDAAPRP,0.424
14,RRIRNRPPRLPRPRPRPIVKPRP,-0.339
15,RRIRIRPPRLPRPRPRPRASPRP,-0.195
16,RRIRRRPPRLPRPRPRPPEPPRP,0.977
17,RRIRNRPPRLPRPRPRPFEYPRP,-0.266
18,RRIRFRPPRLPRPRPRPPCVPRP,0.0878
19,RRIRKRPPRLPRPRPRPLEYPRP,-0.123
20,RRIRFRPPRLPRPRPRPFRTPRP,-0.444
21,RRIRRRPPRLPRPRPRPTKIPRP,0.0521
22,RRIRFRPPRLPRPRPRPARTPRP,0.332

row,Sequence,shrunken log2 fold change
1,RRIRKRPPRLPRPRPRPINVPRP,0.095
2,RRIRMRPPRLPRPRPRPMFDPRP,-0.328
3,RRIRSRPPRLPRPRPRPFIDPRP,-0.0941
4,RRIRYRPPRLPRPRPRPPEKPRP,0.274
5,RRIRHRPPRLPRPRPRPKYIPRP,-0.796
6,RRIRCRPPRLPRPRPRPHMLPRP,-0.431
7,RRIRNRPPRLPRPRPRPRNKPRP,-0.107
8,RRIRLRPPRLPRPRPRPFNNPRP,-0.426
9,RRIRNRPPRLPRPRPRPAMSPRP,-0.137
10,RRIRLRPPRLPRPRPRPLCFPRP,-0.233
11,RRIRDRPPRLPRPRPRPYTRPRP,-0.0984
12,RRIRIRPPRLPRPRPRPNRTPRP,0.101
13,RRIRMRPPRLPRPRPRPCYHPRP,-0.265
14,RRIRVRPPRLPRPRPRPCNYPRP,-0.119
15,RRIRVRPPRLPRPRPRPQIVPRP,-0.136
16,RRIRDRPPRLPRPRPRPFCQPRP,-0.00439
17,RRIRMRPPRLPRPRPRPPFQPRP,0.202
18,RRIRERPPRLPRPRPRPFPLPRP,-0.134
19,RRIRARPPRLPRPRPRPFGRPRP,0.547
20,RRIRCRPPRLPRPRPRPGDCPRP,0.0297
21,RRIRMRPPRLPRPRPRPHTQPRP,0.614
22,RRIRWRPPRLPRPRPRPWNWPRP,0.173

row,Sequence,shrunken log2 fold change
1,RRIRVRPPRLPRPRPRPVLVPRP,-0.311
2,RRIRWRPPRLPRPRPRPHLGPRP,0.14
3,RRIRGRPPRLPRPRPRPMRHPRP,0.559
4,RRIRGRPPRLPRPRPRPTWIPRP,0.25
5,RRIRLRPPRLPRPRPRPSRAPRP,0.0241
6,RRIRGRPPRLPRPRPRPRNFPRP,0.197
7,RRIRFRPPRLPRPRPRPSLSPRP,-0.623
8,RRIRCRPPRLPRPRPRPNDHPRP,-0.716
9,RRIRLRPPRLPRPRPRPKHIPRP,-0.241
10,RRIRLRPPRLPRPRPRPVCTPRP,-0.0517
11,RRIRARPPRLPRPRPRPGYPPRP,0.0269
12,RRIRCRPPRLPRPRPRPHHMPRP,-1.36
13,RRIRMRPPRLPRPRPRPGEFPRP,0.00408
14,RRIRYRPPRLPRPRPRPIMRPRP,0.0675
15,RRIRCRPPRLPRPRPRPTHKPRP,0.298
16,RRIRVRPPRLPRPRPRPHSYPRP,-0.262
17,RRIRVRPPRLPRPRPRPLFSPRP,-0.261
18,RRIRSRPPRLPRPRPRPAWPPRP,0.49
19,RRIRLRPPRLPRPRPRPQFLPRP,-0.0896
20,RRIRQRPPRLPRPRPRPTESPRP,0.105
21,RRIRNRPPRLPRPRPRPAKQPRP,-0.0201
22,RRIRERPPRLPRPRPRPRHAPRP,-0.0387

row,Sequence,shrunken log2 fold change
1,RRIRRRPPRLPRPRPRPDATPRP,1.32
2,RRIRSRPPRLPRPRPRPVFEPRP,-0.0222
3,RRIRHRPPRLPRPRPRPIYKPRP,-0.393
4,RRIRPRPPRLPRPRPRPTMRPRP,0.744
5,RRIRFRPPRLPRPRPRPEHSPRP,-0.00202
6,RRIRDRPPRLPRPRPRPQCRPRP,0.0338
7,RRIRVRPPRLPRPRPRPTEAPRP,0.0175
8,RRIRLRPPRLPRPRPRPNGFPRP,-0.27
9,RRIRHRPPRLPRPRPRPFSNPRP,-1.09
10,RRIRCRPPRLPRPRPRPVGWPRP,0.64
11,RRIRKRPPRLPRPRPRPQTQPRP,0.26
12,RRIRCRPPRLPRPRPRPRWIPRP,0.0454
13,RRIRIRPPRLPRPRPRPDGSPRP,-0.189
14,RRIRERPPRLPRPRPRPQMKPRP,-0.568
15,RRIRQRPPRLPRPRPRPDVPPRP,0.0169
16,RRIRQRPPRLPRPRPRPCLTPRP,0.0158
17,RRIRHRPPRLPRPRPRPAFHPRP,-0.152
18,RRIRIRPPRLPRPRPRPAIMPRP,-0.565
19,RRIRVRPPRLPRPRPRPDLMPRP,-0.00839
20,RRIRWRPPRLPRPRPRPAKDPRP,0.0218
21,RRIRFRPPRLPRPRPRPNCEPRP,0.194
22,RRIRMRPPRLPRPRPRPFVFPRP,0.0629

row,Sequence,shrunken log2 fold change
1,RRIRHRPPRLPRPRPRPVFMPRP,-0.311
2,RRIRLRPPRLPRPRPRPIFKPRP,-0.276
3,RRIRDRPPRLPRPRPRPDLGPRP,0.829
4,RRIRHRPPRLPRPRPRPSWVPRP,-0.0882
5,RRIRMRPPRLPRPRPRPSFYPRP,-0.29
6,RRIRTRPPRLPRPRPRPRHGPRP,0.745
7,RRIRYRPPRLPRPRPRPYPTPRP,-0.282
8,RRIRIRPPRLPRPRPRPGASPRP,0.0546
9,RRIRIRPPRLPRPRPRPYKKPRP,-0.0756
10,RRIRYRPPRLPRPRPRPTEQPRP,-0.0161
11,RRIRFRPPRLPRPRPRPFKNPRP,-0.46
12,RRIRLRPPRLPRPRPRPMDAPRP,0.282
13,RRIRFRPPRLPRPRPRPAKVPRP,0.333
14,RRIRMRPPRLPRPRPRPDVAPRP,0.0335
15,RRIRHRPPRLPRPRPRPDCCPRP,-0.0827
16,RRIRVRPPRLPRPRPRPKCPPRP,0.0181
17,RRIRFRPPRLPRPRPRPTHCPRP,-0.0892
18,RRIRKRPPRLPRPRPRPMSGPRP,-0.211
19,RRIRKRPPRLPRPRPRPNFAPRP,0.155
20,RRIRHRPPRLPRPRPRPRCIPRP,-0.0991
21,RRIRWRPPRLPRPRPRPYRCPRP,0.0623
